Reference: patent US20240093191A1, “COMPOSITIONS AND METHODS FOR TREATING DISEASE ASSOCIATED WITH DUX4 OVEREXPRESSION” (RESEARCH INSTITUTE AT NATIONWIDE CHILDREN'S HOSPITAL, priority 2021, published 2024)

Key:
Type in all cases: cell-based, human
[1] = system: DUX4 ORF (RenLuc-DUX4 ORF); assay: Dual-luciferase assay, RenLuc-DUX4 ORF reporter co-transfected with miDUX4 plasmids in HEK293 cells; conditions: HEK293, 24 h
Procedure: Dual Luciferase Assay. (See also FIGS. 1A, 3A-B, 4A-B, 5B, and 16B-C.) This assay was performed as previously described by Wallace et al. (Mol. Ther. Methods Clin. Dev. 8: 121-30 (2018)) and following the dual-luciferase reporter assay system (Promega) protocol with some modifications. All plasmid constructs had the psiCheck2 dual luciferase reporter plasmid (Promega) as backbone that contains separate Renilla and Firefly luciferase genes, where the former contains the various target sequences used in the experiments of the disclosure, and the latter serves as a transfection normalizer (control). All DUX4 and control sequences were cloned downstream of the Renilla luciferase stop codon, serving as a 3′UTR. HEK293 cells were pre-plated 24h before transfection. Cells were then co-transfected with the luciferase DUX4 reporter and individual microRNA expression plasmids in an increasing luciferase DUX4 reporter:miRNA molar ratio using Lipofectamine 2000 (Invitrogen). Luciferase activity was measured 24h or 48h after transfection. DUX4 gene silencing was determined as previously described [Wallace et al., Mol. Ther. Methods Clin. Dev. 8: 121-30 (2018)]. Triplicate data were averaged per experiment, and individual experiments were performed 3 times. Results were reported as the average ratio of Renilla to Firefly luciferase activity±SEM for all combined experiments.
Accordingly, two new mi405 constructs, i.e., mi405F and mi405NF, were designed. […] To assess the inhibition efficiency of the three mi405 constructs, a dual-luciferase assay and western blot analysis, similar to what was described for mir-675, were carried out. In the dual-luciferase assay, U6.mi405, U6.mi405F, or U6.mi405NF was co-transfected into HEK293 cells along with the RenLuc-DUX4 ORF (a construct expressing the open reading frame of DUX4 as a 3′UTR sequence of Renilla Luciferase). 24 h after transfection, U6.mi405, U6.mi405F, and U6.mi405NF reduced the relative Renilla luciferase activity by 85±1%, 89±1%, and 66±1% (P<0.0001, ANOVA, N=3), respectively, when tested against the RenLuc-DUX4 ORF construct.

[2] = system: DUX4-FL (DUX4 ORF + 3'UTR, RenLuc-DUX4-FL); assay: Dual-luciferase assay, RenLuc-DUX4-FL reporter co-transfected with miRNA plasmids in HEK293 cells; conditions: positive control, molar ratio not stated, 48 h
Text: FIG. 1A. Dual-luciferase assay to test the ability of U6.mir-675 to target DUX4. Shown here is the mir-675 expression plasmid used in this study. In this construct, the RNA polymerase III U6 promoter (U6p) controls the expression of mir-675. A terminal signal formed of a stretch of six T nucleotides allows the termination of transcription. On the right, the secondary structure of the mir-675 along with its 5′ and 3′ end flanking sequences (Boxed) is shown. At the 5′ end, the flanking sequence is of 40 nucleotides long and at the 3′ end, the flanking sequence is of 47 nucleotides long starting from the nucleotide at position 114. U6.mir-675 was tested to target DUX4 using the dual-luciferase assay. To do this, DUX4 was cloned in the RenLuc-DUX4-FL expression plasmid (FIG. 1A), i.e., DUX4-FL (DUX4 ORF without V5 tag+3′UTR) was PCR amplified using CMV.DUX4-FLΔV5 as template with the following primers: forward: 5′ […] 3′ (SEQ ID NO: 125), reverse: 5′ […] 3′ (SEQ ID NO: 126). The PCR product was then cloned into a previously designed RenLuc SD5 mutant plasmid using XhoI/SpeI restriction sites and the RenLuc.SD5 mutant-DUX4 3′UTR plasmid backbone. The Renilla luciferase gene has a splicing donor mutation (*SID5) that prevents the alternative splicing of the DUX4-FL mRNA (Ansseau et al. (2015) PLoS One, 10, e0118813). The dual-luciferase assay was performed by co-transfecting the RenLuc-DUX4-FL and U6.mir-675 expression plasmids into the human embryonic kidney HEK293 cells. 48 hours after transfection, both the Renilla and Firefly luciferase activities were measured. The latter was used to normalize for Renilla luciferase activity. The non-targeting RenLuc control backbone plasmid (RenLuc) was co-transfected with U6.mir-675 and the RenLuc-DUX4-FL co-transfected with U6.milacZ as negative control reactions. In the other reactions, mir-675 reduced the relative Renilla luciferase activity by 24±3% (P<0.0001, ANOVA, N=3), 28±2% (P<0.0001, ANOVA, N=3) and 33±3% (P<0.0001, ANOVA, N=3) at a molarity ratio U6.mir-675: RenLuc-DUX4-FL (n:n) of 10 to 1, 20 to 1 and 40 to 1, respectively. All readings were normalized to the U6.milacZ (negative control). Six replicate data were averaged per experiment and individual experiments were performed in triplicate (N=3). Results were reported as the average relative Renilla luciferase activity±SEM for all combined experiments. […] A representative western blot gel and the quantification results of three independent western blot replicates (N=3) performed on 15 μg of total protein extracts collected from HEK293 cells 24 hours after co-transfection with the AAV.CMV.DUX4-FL and the U6.mir-675 or the human long non-coding H19 expression plasmid (CMV.H19) is shown here. […]

DUX4 protein = assay: Western blot of V5-tagged DUX4 protein in co-transfected HEK293 cells; conditions: 1:4 DUX4:mi405 molar ratio; HEK293; 24 h; normalized to miGFP; N=2

B1: U6.mi405: original artificially designed miDUX4 (mi405) U6 expression plasmid, Wallace et al. (nucleic acid)
DNA: ACGCCGCCATCTCTAGGCCCGCGCCGGCCCCCTCGCACAGACTTGTGGGAGAAGCTCGGCTACTCCCCTGCCCCGGTTAATTTGCATATAATATTTCCTAGTAACTATAGAGGCTTAATGTGCGATAAAAGACAGATAATCTGTTCTTTTTAATACTAGCTACATTTTACATGATAGGCTTGGATTTCTATAAGAGATACAAATACTAAATTATTATTTTAAAAAACAGCACAAAAGGAAACTCACCCTAACTGTAAAGTAATTGTGTGTTTTGAGACTATAAATATCCCTTGGAGAAAAGCCTTGTTTGCGTTTAGTGAACCGTCAGATGGTACCGTTTAAACTCGAGTGAGCGATCCAGGATTCAGATCTGGTTTCTGTAAAGCCACAGATGGGAAACCAGATCTGAATCCTGGACTGCCTACTAGAGCGGCCGCCACAGCGGGGAGATCCAGACATGATAAGATACATTTTTT
[1]; 1:4 DUX4:mi405 molar ratio, normalized to miGFP
  reduction of relative Renilla luciferase activity: 85±1%
[1]; DUX4:mi405 molar ratio 2 to 1, normalized to U6.miGFP
  reduction of Renilla luciferase activity: 62±2%
[2]
  reduction of relative Renilla luciferase activity: 80±2%
DUX4 protein
  reduction of DUX4 protein levels: 79±1%
